Data taken from the supplement of paper PMC12764529.
± gives the half width of the 95% confidence interval.

Assays:
[1] = folding stability dG unfold (combined trypsin and chymotrypsin); higher = more stable
In short: (§1)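 Mini-proteins designed to be under 80 residues and free of cysteine were carried in a PA-tagged cDNA display construct and digested with trypsin and with chymotrypsin. Each protease was applied at 11 threefold-diluted concentrations, alongside a no-protease condition, before sequencing. K50 came from Bayesian fitting of the sequencing counts, and unfolding free energy was obtained by comparing it with a sequence-predicted unfolded-state K50 and a shared folded-state K50, for each protease separately or for both together. Designs were retained only if their AlphaFold2 dimer inter-PAE exceeded 15.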

[2] = folding stability dG unfold from chymotrypsin proteolysis; higher = more stable
In short: as §1

[3] = folding stability dG unfold from trypsin proteolysis; higher = more stable
In short: as §1

Sequence	folding stability dG unfold [1] [kcal/mol]	folding stability dG unfold [2] [kcal/mol]	folding stability dG unfold [3] [kcal/mol]
SGPTVTYKVPYTRDVAVPTVKIGAKVTTTTTVTKLPNGTLASTSTSADVELTLNLPPDTPLSPNYLSTGGSA [r9_277_JUSTAS]	-0.0833 ± 0.2	-0.175 ± 0.38	-0.0817 ± 0.21
SGSLSIEFSSTEPSSPGSITLSKLFPEPEADRATHTIKLPNSTIELEFDSAEDLIKNVEKLLKELGNPGKSA [r9_258_JUSTAS]	0.115 ± 0.12	-0.0786 ± 0.18	0.297 ± 0.058
SGSPDELEVVESEETVNIPPEELEAKYGIKVPENSTVVIKTKTLKPPSGNDIVEPEIKIYDPVTNEWIELSA [r9_349_JUSTAS]	-0.47 ± 0.25	-0.474 ± 0.27	-0.537 ± 0.13
SGTRTVTVTGAVLSRLPDGTLVTDPGEAPVTVPVPPPKPRIEVPPELREKLREAAEKLGLELTEEDIETASA [r9_487_TrMRF]	-0.365 ± 0.26	-0.896 ± 0.9	-0.208 ± 0.36
SGVQLEWKYDPEDNKREIKISIFFPADDPEKKKQFAKVIAKEIENMFQEQGWKPKKIDIEVMRMPPGQPLSA [r9_117_TrROS]	1.02 ± 0.067	1.2 ± 0.063	0.889 ± 0.049
SGYLDAPVKDIKVEKKPIPTSGKVTYTFEAETEDGKPVRVEYNPVTGKIVFGLPPGFKIKPGKPAEVVVGSA [r9_509_TrMRF]	0.718 ± 0.13	0.885 ± 0.2	0.16 ± 0.081
SHMVTVTIYKNGVKVKETEIPLEEVEKMPEEEIIEFAAEIAKKNPGVNYTFTITRPSGPSTVSIDGPEKLKS [r1_477_JUSTAS]	1.28 ± 0.21	1.55 ± 0.14	0.762 ± 0.12
SHTTTEPATGVTVEVVPSPDGTHVVTVKKPGGEVVKTVTVPSGPRPPGSTTPLTVALTDLPPDVETSVDLSS [r1_263_JUSTAS]	0.232 ± 0.2	0.141 ± 0.077	0.416 ± 0.067
SIEVEKTPDGKFEIENDNGWKVEIEVFPGMIEIKIKPVKVYVPDGKWFETPEEAEKMQEKNGVPITEDDLSA [r9_660_TrROS]	0.743 ± 0.19	1.08 ± 0.071	0.615 ± 0.12
SIIIQFDNPEEAKENAEDFINEFQDEFGPGQKIPITIHDPGGDPATFPIEIEPPPPPVEYDEENGKLKPDSA [r9_596_TrROS]	1.51 ± 0.43	1.7 ± 0.17	1.13 ± 0.18
SIIVEPLPDNTFIAYFPETDSVIEIRVDPSTGKAHAIAELPGEPVEATFDPRKGVLVIELPNGRIVLPLLSA [r9_541_TrMRF]	2.01 ± 0.088	1.7 ± 0.065	2.28 ± 0.051
SIKFPDGSEIEFEWSEDKEYEVELPNGPIVKIKKVIKEGESWIVEVEFEDGSKVILEVDPNNPEEVQKAIAS [r1_66_TrMRF]	2.06 ± 0.1	2.19 ± 0.072	1.77 ± 0.086
SKFDPDDPGQPVRFTVMIPVPEDAMKNGDLEEVRDKVEEAADMFRPHGMEVKDIEVPPEQGWVMVKFEMPSA [r9_75_TrROS]	-0.0605 ± 0.65	-0.222 ± 0.43	-0.824 ± 0.34
SKGTFRAVLPLETLKELIERFKSKGYRIEVKPLSIKPFEVPGIREDGTPELFPVVEVEAEIEIYPPEDPASA [r9_991_TrMRF]	1.82 ± 0.066	1.9 ± 0.063	1.671 ± 0.015
SKIKIEVDEETGVITVTVEVDNLSEEEILDKLKEELEKLGFEVEVKVVKIEEVNGKVVVTVEIKIKPEKLSA [r9_347_TrROS_Hall]	1.45 ± 0.093	0.9 ± 0.073	1.75 ± 0.11
SKIKIKAKDKKTNIPIDEIDIYPLEDGSYGIKIIFTFPKEKKEITIPIPKNKKIEEFIKALGLEEIEIDASA [r9_492_TrMRF]	1.79 ± 0.23	2.33 ± 0.13	1 ± 0.1
SKIKILIAMTEDEIKKLAEELKKKGYEIKIKVKKIEKKKVKVKNKDGKTYEKEVVLVEVEIEIVPKGVKPSA [r9_991_TrROS_Hall]	3.27 ± 0.73	3.98 ± 0.32	2.73 ± 0.43
SKIKKIKRVEIFKKKEKGYVVKITVEIDGKEYEFTVPAGMSLEEALKELLKNKDVKIKSVEIKPVSKEELSA [r9_607_TrROS_Hall]	0.595 ± 0.29	0.734 ± 0.18	0.0722 ± 0.22
